For test [1], the target named is T1, recombinant human BCMA-his fusion protein (ACRO Biosystem, Cat. No. BCA-H522y) (human, UniProt Q02223 1-54).
T1 construct: extracellular domain; Bought protein; also called huBCMA-his; hu BCMA-his; not shown: His tag
T1 sequence (looked up): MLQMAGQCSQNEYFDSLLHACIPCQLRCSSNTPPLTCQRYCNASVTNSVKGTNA
The test can be described thus: SPR (Biacore T200), anti-His capture on CM5, 1:1 fit. As to the method:
In this example, the antigen-antibody binding kinetics and affinity were determined by the BIACORE method.
Procedures: The anti-histidine antibody (GE, His capture Kit, Cat. No. 28995056) was conjugated to the Sereis S Sensor Chip CMS to capture the test articles, thus acquiring the binding kinetic and affinity data of the antigen, as an analyte, to the test articles. The initial concentration for detecting the binding of the antigen and the test articles was 10 nM. […] The Start up flushing process (1×HBS-EP+buffer) was performed at least thrice before loading to equilibrate the system. The association and dissociation tendencies between the antigen and the test articles were detected. When the dissociation was completed, a regeneration reagent was loaded for regeneration before the detection of the next concentration was performed. After the detection was finished, the data were fitted by using a 1:1 Binding fitting mode in data analysis software (Biacore T200 Evaluation Software).
(In SPR one partner is held on a chip, and binding of the other changes the refractive index at the surface.)

Test [2] concerns the target T1, recombinant human BCMA-his fusion …. The test can be described thus: competitive ELISA, coated huBCMA-his, competitor APRIL-biotin. Here is the method:
(§1) The 96-well microplate was treated with 100 μL of 0.5 μg/mL huBCMA-his in PBS and incubated overnight at 4° C. The plate was then washed thrice with PBS washing buffer containing 0.1% of Tween-20 and blocked with 300 μL of PBS containing 1% of BSA for 2 h. 100 μL of each BCMA antibody was added to the plate. […] The plate was incubated at 37° C. for 1 h, and unbound secondary antibody was washed with PBS washing buffer containing 0.1% of Tween-20. The TMB chromogenic solution was added at 100 μL/well. After a 5-min reaction at room temperature, 2 M H₂SO₄ was added at 100 μL/well to terminate the reaction. The microplate was placed on a microplate reader (Molecular Devices, SPECTRA Max plus 384) and the absorbance OD450 value was read at 450 nm wavelength.
A general note: An ELISA detects its analyte on a solid surface through an enzyme-linked reagent.

The target is the same in test [3]. Description: competitive ELISA, coated huBCMA-his, competitor 83A10-biotin. As to the method:
as §1

Test [4] concerns the target T2, cynomolgus monkey BCMA on HEK293 cynoBCMA cells (cynomolgus monkey, UniProt A0A2K5UD97 1-183).
T2 construct: whole, on cells
The test can be described thus: flow cytometry on HEK293 cynoBCMA cells. Here is the method: Procedures: The cells were resuspended in PBS, and the cell density was adjusted to 2×10^5 cells/well. Human-mouse chimeric monoclonal antibodies were added to a 96-well plate at 50 μL/well and serially 3-fold diluted from 3000 nM to the 9th concentration. The plate was incubated for 1 h at 4° C. 150 μL of precooled PBS containing 1% of FBS was added into the 96-well plate after the co-incubation with the primary antibody was finished. The mixtures were centrifuged at 300×g for 5 min and the supernatants were discarded. The above procedures were repeated once. The fluorescent secondary antibody PE anti-human IgG Fc (Biolegend, 409304) was added at 80 μL/well. The plate was incubated at 4° C. for 30 min. 150 μL of precooled PBS containing 1% of FBS was added into the 96-well plate after the co-incubation with the secondary antibody was finished. The 96-well plate was centrifuged at 300×g for 5 min and the supernatants were discarded. The above procedures were repeated once. The cells were resuspended in 100 μL of PBS containing 1% of FBS and detected on a flow cytometry (BD Accuri™ C6).
Background: A flow cytometer gives signals particle by particle.

For test [5], the target named is T2, cynomolgus monkey BCMA on HEK293 …. The test can be described thus: flow cytometry on HEK293 cynoBCMA cells. Here is the method: Procedures: Preparation of cell suspensions: The cells were resuspended in PBS, and the cell density was adjusted to 2×10⁵ cells/well. Mouse antibodies were added to a 96-well plate at […] and serially 3-fold diluted from 3000 nM. The plate was incubated for 1 h at 4° C. 150 μL of precooled PBS containing 1% of FBS was added into the 96-well plate after the co-incubation with the primary antibody was finished. The mixtures were centrifuged at 300×g for 5 min and the supernatants were discarded. The above procedures were repeated once. The fluorescent secondary antibody PE […] (Biolegend, 409304) was added at 80 μL/well. The plate was incubated at 4° C. for 30 min. 150 μL of precooled PBS containing 1% of FBS was added into the 96-well plate after the co-incubation with the secondary antibody was finished. The mixtures were uniformly mixed with a pipette. The 96-well plate was centrifuged at 300×g for 5 min in a plate centrifuge and the supernatants were removed. The above procedures were repeated once. The cells were resuspended in 100 μL of PBS containing 1% of FBS and detected on a flow cytometry (BD Accuri™ C6).
The source holds these as a separate data set.

Test [6] concerns the target T3, recombinant cynomolgus monkey cynoBCMA-his (ACRO Biosystem, Cat. No. BCA-052H7) (cynomolgus monkey, UniProt A0A2K5UD97 1-53).
T3 construct: extracellular domain; Bought protein; also called cynomolgus/rhesus macaque BCMA/TNFRSF17 protein; not shown: His tag
Description: competitive ELISA, coated cynoBCMA-his, competitor 83A10-biotin.

Where two headings read alike, the source gives them in different places.

T2 sequence (A0A2K5UD97 entry or part of it): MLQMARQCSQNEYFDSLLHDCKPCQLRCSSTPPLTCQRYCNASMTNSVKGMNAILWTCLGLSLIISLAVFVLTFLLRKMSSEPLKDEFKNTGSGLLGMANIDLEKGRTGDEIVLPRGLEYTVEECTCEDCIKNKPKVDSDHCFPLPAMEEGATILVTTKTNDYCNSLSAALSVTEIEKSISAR
T3 sequence (A0A2K5UD97 entry or part of it): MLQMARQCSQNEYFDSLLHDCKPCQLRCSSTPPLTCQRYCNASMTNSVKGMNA

B1: human-mouse chimeric antibody c-mAb2 (antibody, human IgG1, V domains shown)
VH: QVQLQQSDAELVKPGTSVKISCKVSGYTFTDHTIHWMKQRPEQGLEWIGYIYPRNGNTKYNEKFKGKATLTADKSSSTAYMHLNSLTSEDSAVYFCARYDYDGYFDVWGTGTTVTVSS
VL: DVVMTQTPLSLPVSLGDQASISCRSSQSHVHSDGHTYLHWYLQKPGQSPELLIYKVSNRFSGVPDRFSGSGSGTDFTLKISRVEAEDLGVYFCSQNTHFPWTFGGGTKLEIK
notes: not shown: human IgG1 heavy chain constant region, GenBank No. AK303185.1; human kappa light chain constant region, GenBank No. MG815648.1
What is called Kd is the constant that tells how readily two partners part at equilibrium. As a reminder, the koff is a measure of how fast the partners let go of each other. By kon is commonly meant a measure of how fast the partners come together. For orientation: IC50 means the midpoint of a concentration-inhibition curve. As for B1, in test [1], the Kd was 1.45 nM, the koff turned out to be 0.0679 s⁻¹ and the kon turned out to be 4.68e+07 M⁻¹ s⁻¹. Further, the IC50 in test [2] turned out to be 0.0108 µg/mL. Further, the IC50 in test [3] was 8 µg/mL.

B2: human-mouse chimeric antibody c-mAb3 (antibody, human IgG1, V domains shown)
VH: EVQLQQSGPELVKPGASVKILCKASGYTITDYNMDWVKRSHGKSLEWIGNINPHNGGSIYNQKFKGKATLTVDKSSSTAFMELRSLTSEDTAVYYCARGDATLVLDYWGQGTSLTVSS
VL: DIVLTQSPASLAVSLGQRATISCRASKSVSTSGLSYMHWYQQKPGQPPKVLIYLASNLESGVPARFSGSGSGTDFTLNIHPVEEEDAATYYCQHSRELPPTFGAGTKLELK
notes: as for B1
A word on the EC50: it is the concentration at which the effect is half-maximal. Take B2: the EC50 in test [4] and in test [5] was 2.66 nM throughout. Moreover, the dissociation constant Kd in test [1] was determined as 0.38 nM. In addition, the koff in test [1] was 0.00178 s⁻¹. For the same molecule, the kon in test [1] was 4.69e+06 M⁻¹ s⁻¹. Besides, the IC50 in test [2] was more than 12 µg/mL; in test [3], 1 µg/mL; in test [6], 1.05 µg/mL.

For the origin of these results see patent publication US20240117061A1 (WUHAN YZY BIOPHARMA, published 2024).
